Values of other authors as cited in PMC5013049.

Tests used:
[1] = biological target: ExsD (Pseudomonas aeruginosa) (UniProt Q9I321); experiment: ITC
[2] = biological target: ExsE (Pseudomonas aeruginosa) (UniProt Q9I322); experiment: ITC
UniProt Q9I322, sequence (Q9I322 whole entry): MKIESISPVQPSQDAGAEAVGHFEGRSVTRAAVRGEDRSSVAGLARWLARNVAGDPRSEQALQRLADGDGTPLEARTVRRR

UniProt Q9I321, sequence (Q9I321 whole entry): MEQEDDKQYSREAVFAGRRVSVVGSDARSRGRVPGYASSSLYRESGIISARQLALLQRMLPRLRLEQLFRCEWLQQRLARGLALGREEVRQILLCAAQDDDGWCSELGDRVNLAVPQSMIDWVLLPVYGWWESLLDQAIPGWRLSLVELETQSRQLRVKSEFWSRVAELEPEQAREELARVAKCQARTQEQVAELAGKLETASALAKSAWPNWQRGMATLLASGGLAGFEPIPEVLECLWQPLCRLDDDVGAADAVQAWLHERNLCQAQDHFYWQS

ExsC (from UniProt P26995)
Kd [1]: 18 nM | Kd [2]: 1 nM
